PMC8429728, “TNK1 is a ubiquitin-binding and 14-3-3-regulated kinase that can be targeted to block tumor growth” (Nature Communications, 2021)
Blank lines part the entries; values can stand above or below the substance they belong to.

Legend:
[1] = biological target: Biotin-(4xPEG)-RNKGISRp… (human); assay: BLI; biotin-tagged peptide loaded on streptavidin biosensors; 14-3-3ζ 50–1000 nM, 4 s association, 120 s dissociation; 0.001% TBST; 30 °C; Kd = Koff/Kon, mean of 3 runs
14-3-3ζ = 14-3-3ζ (UniProt P63104); assay: in vitro europium/Cy5 FRET binding assay
[2] = biological target: FLAG-TNK1 ΔUBA (1–580) (human) (UniProt Q13470); assay: co-IP; FLAG-TNK1 (WT or mutants) precipitated on anti-DYKDDDDK resin from HEK-293T lysate (10 mM HEPES KOH pH 7.5, 150 mM KCl, 0.01% IGEPAL), 1 h 4 °C, washed with PBS; immunoblotted for 14-3-3 or ubiquitin; in Fig. 2c cells treated with 1 uM kinase inhibitors for 4 h
FLAG-TNK1 ΔUBA (1–580) (human), sequence (Q13470 1-580, stated change not applied): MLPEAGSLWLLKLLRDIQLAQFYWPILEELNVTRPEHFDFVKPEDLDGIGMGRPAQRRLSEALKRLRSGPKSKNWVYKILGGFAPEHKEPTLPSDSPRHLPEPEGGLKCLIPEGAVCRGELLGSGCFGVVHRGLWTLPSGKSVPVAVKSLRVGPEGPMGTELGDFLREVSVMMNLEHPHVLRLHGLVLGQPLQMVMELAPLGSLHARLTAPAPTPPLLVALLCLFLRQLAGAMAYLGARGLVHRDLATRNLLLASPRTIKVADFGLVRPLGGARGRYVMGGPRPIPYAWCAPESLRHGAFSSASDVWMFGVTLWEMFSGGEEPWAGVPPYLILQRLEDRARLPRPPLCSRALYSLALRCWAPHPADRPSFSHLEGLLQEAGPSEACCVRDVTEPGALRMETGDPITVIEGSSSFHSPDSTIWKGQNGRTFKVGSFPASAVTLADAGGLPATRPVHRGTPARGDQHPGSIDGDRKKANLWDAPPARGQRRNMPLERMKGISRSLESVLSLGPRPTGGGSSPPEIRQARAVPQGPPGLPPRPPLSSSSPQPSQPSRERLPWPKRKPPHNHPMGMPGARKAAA

14-3-3 (endogenous, isoform not told), sequence (P63104 whole entry, canonical isoform): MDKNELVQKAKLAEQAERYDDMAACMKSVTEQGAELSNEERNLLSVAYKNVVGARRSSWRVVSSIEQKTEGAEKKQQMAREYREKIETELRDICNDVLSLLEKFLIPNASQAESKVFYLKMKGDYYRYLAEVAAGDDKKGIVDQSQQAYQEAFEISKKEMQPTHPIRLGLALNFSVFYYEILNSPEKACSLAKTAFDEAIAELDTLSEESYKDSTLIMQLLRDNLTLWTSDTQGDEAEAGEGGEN

- Kd [1]: 3.39 µM
Substance: 14-3-3ζ (purified, from the GST-14-3-3ζ plasmid) (from UniProt P63104 1-245) (natural protein)

- binding against the reference (14-3-3ζ; reference: non-phosphorylated peptide, sites S502): gained
Substance: TNK1 (from UniProt Q13470) pS502 peptide

- fold increase in interaction with 14-3-3 compared to WT TNK1 [2]: 4 fold
Substance: 14-3-3 (endogenous, isoform not told) (from UniProt P63104 1-245) (natural protein)

- binding against the reference (14-3-3ζ; reference: pS502 mono-phosphorylated peptide, sites S500,S505): lost
Substance: TNK1 (from UniProt Q13470) pS500/pS502/pS505 peptide
